By Kd is commonly meant the equilibrium constant for the complex coming apart.

For experiment [1], the target named is CD137 (TNFRSF9) on cells (human), Q07011. The experiment in a line: cell-based or functional assay.
Experiment [2] has as its target T1, cyno CD137 extracellular domain (cyno), A9YYE7.
T1 chain: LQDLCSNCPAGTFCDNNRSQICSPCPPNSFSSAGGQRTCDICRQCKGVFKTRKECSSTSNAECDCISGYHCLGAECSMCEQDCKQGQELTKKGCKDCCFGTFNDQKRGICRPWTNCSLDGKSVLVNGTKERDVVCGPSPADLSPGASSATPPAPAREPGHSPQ
Briefly: SPR direct binding, BCY13582 captured with reversible biotin capture kit, soluble CD137 ECD; n = 1.

The target in experiment [3] is human CD137 extracellular domain (human), Q07011. The experiment in a line: SPR direct binding, BCY13582 captured with reversible biotin capture kit, soluble CD137 ECD; n = 3.
human CD137 extracellular domain (human), Q07011, sequence (Q07011 24-186): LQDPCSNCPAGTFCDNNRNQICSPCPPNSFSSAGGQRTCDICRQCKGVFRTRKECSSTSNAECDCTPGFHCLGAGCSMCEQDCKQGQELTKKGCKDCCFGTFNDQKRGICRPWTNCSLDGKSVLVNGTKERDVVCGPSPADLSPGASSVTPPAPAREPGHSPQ

Starred links: 1 amine or outer side, 2 acyl side, 3 side chain; linkers in the order of their positions; H or OH if unused. Positions of bridges follow the written chain, without caps; N, C: chain ends. Non-standard residues stand in square brackets, D forms with d. Groups on a side chain read outwards from the residue. Chains are numbered I, II in the order given. No end group written: not given here. *: point of attachment. TATA = O=C(CC[*:1])N1CN(C(=O)CC[*:2])CN(C(=O)CC[*:3])C1; PEG12 = NCCOCCOCCOCCOCCOCCOCCOCCOCCOCCOCCOCCOCCC(=O)O; Biotin = O=C1N[C@H]2[C@H](CS[C@H]2CCCCC(=O)*)N1; 1Nal = N[C@@H](Cc1cccc2ccccc12)C(=O)O; Hyp = O=C(O)[C@@H]1C[C@@H](O)CN1; hArg = N=C(N)NCCCC[C@H](N)C(=O)O; tBuAla = CC(C)(C)C[C@H](N)C(=O)O; Nle = CCCC[C@H](N)C(=O)O; Pent4ynoyl = C#CCCC(=O)*

CD137 (TNFRSF9) on cells (human), Q07011, sequence (Q07011 24-255): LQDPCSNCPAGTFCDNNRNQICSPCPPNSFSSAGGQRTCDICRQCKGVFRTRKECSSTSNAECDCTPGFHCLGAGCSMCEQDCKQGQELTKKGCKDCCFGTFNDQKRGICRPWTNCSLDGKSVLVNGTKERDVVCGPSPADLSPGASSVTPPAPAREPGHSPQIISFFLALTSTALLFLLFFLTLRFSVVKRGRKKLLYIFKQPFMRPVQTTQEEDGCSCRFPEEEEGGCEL

B1: BCY13582 (peptide)
peptide 1: {N‑(acid-PEG3)‑N‑bis(PEG3-azide) linker}-CP[1Nal][dD]CM[hArg]DWSTP[Hyp]WC
peptide 2: Ac-C[tBuAla]PE[dK](Pent4ynoyl)PYCFADPY[Nle]CA
peptide 3: Ac-C[tBuAla]PE[dK](Pent4ynoyl)PYCFADPY[Nle]CK([PEG12-Biotin])
modifications: linker I:1-I:5-I:15, II:1-II:8-II:15, III:1-III:8-III:15 via TATA; not fully specified (bridges); also: chains 2 and 3 triazole-clicked via D-Lys(PYA) to the N-(acid-PEG3)-N-bis(PEG3-azide) linker, chain 1 joined to the linker at its N-terminus
For the molecule B1, in experiment [1], the EC50 (nM) of fold induction over background, CD137 reporter assay, coculture with HT1376 (human) came out at 0.58 nM and the EC50 (nM) of fold induction over background, CD137 reporter assay, coculture with MDA-MB-468 (human) worked out at 0.34 nM. In experiment [2], this molecule had a Kd of 4.23 nM. In experiment [3], this molecule had a Kd of 8.4 nM.

B2: BCY13583 (peptide)
peptide 1: {N‑(acid-PEG3)‑N‑bis(PEG3-azide) linker}-CP[1Nal][dD]CM[hArg]DWSTP[Hyp]WC
peptide 2: Ac-C[tBuAla]PE[dK](Pent4ynoyl)PYCFADPY[Nle]CA
peptide 3: Ac-C[tBuAla]PE[dK](Pent4ynoyl)PYCFADPY[Nle]CK(Alexa Fluor 488)
modifications: linker I:1-I:5-I:15, II:1-II:8-II:15, III:1-III:8-III:15 via TATA; not fully specified (bridges); also: chains 2 and 3 triazole-clicked via D-Lys(PYA) to the N-(acid-PEG3)-N-bis(PEG3-azide) linker, chain 1 joined to the linker at its N-terminus
Turning to B2, in experiment [1], the EC50 (nM) of fold induction over background, CD137 reporter assay, coculture with HT1376 (human) is 1.7 nM and the EC50 (nM) of fold induction over background, CD137 reporter assay, coculture with MDA-MB-468 (human) was determined as 0.84 nM.

The record behind these values is patent US20240336656A1.
